According to paper PMC10587035 (Discover Mental Health, 2023):

Columns and labels:
[1] = biological target: T1, human OT-R (Homo sapiens, UniProt P30559); assay: In vitro oxytocin receptor activation assay (intracellular Ca2+ mobilization, Fluo-4); type: cell-based; settings: HEK293 cells expressing human OT-R; ATP 10^-4 M as positive control; IgG applied without OT
T1 construct: expressed in transfected cells; host or cells: HEK293, stably transfected
T1 sequence (P30559 1-389): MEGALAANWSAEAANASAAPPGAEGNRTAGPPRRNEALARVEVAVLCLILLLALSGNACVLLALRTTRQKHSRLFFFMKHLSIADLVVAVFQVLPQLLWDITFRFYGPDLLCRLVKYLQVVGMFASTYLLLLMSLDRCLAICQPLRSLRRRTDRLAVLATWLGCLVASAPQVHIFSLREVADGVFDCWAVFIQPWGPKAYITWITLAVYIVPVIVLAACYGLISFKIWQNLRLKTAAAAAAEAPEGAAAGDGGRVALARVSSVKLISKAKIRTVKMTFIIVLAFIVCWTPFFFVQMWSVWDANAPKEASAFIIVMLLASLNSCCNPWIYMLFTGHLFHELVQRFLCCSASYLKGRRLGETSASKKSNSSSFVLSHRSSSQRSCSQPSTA
Method: Cells were grown on DMEM medium (Gibco, Thermo Fisher Scientific) with 10% FBS and 0.6% Penicillin/Streptomycin (Merck). To prepare assay plates, cell line was treated with 0.25% trypsin-EDTA (Gibco), cell pellet was resuspended in medium and filed in a flat clear bottom black 96-microwell plate (Greiner Bio-One, Les Ulis, France) at a rate of 50000 cells per well, which was coated during 1 h at 37°C with 100µg/mL of Poly-L-Lysin (Merck) and 1 h with 100µg/mL of Collagen I (Institut de Biotechnologie Jacques Boy, Reims, France). The microplate was incubated 24 hours at 37°C with 5% of CO2.
Briefly, confluent cells were incubated 45 min at 37°C with 2 µM Fluo-4 acetoxymethyl ester (AM) calcium dye (Life Technologies, Villebon-sur-Yvette, France) in complete HBSS, washed twice and incubated in 200 µL of the same complete medium at 37°C for 20 min. Fluorescence was recorded using a Flexstation III fluorescence microplate reader system (Molecular Devices, Saint-Grégoire, France) during 180 s with an excitation wavelength of 485 nm, an emission wavelength of 525 nm and a cutoff filter of 515 nm. […]
Ca^2+ releasing kinetics were determined, as well as area under curve, the maximal fluorescence peak and the time for which this maximum is reached. Fluorescence data were calculated as mean +/- SEM.

[2] = biological target: human oxytocin receptor, stably transfected in HEK293 cells (human) (UniProt P30559)
[3] = biological target: green-fluorescence protein (GFP)-labeled human OT-R in HEK293 cells (human) (UniProt P30559)

Sequence of oxytocin (P01178 whole entry, looked up): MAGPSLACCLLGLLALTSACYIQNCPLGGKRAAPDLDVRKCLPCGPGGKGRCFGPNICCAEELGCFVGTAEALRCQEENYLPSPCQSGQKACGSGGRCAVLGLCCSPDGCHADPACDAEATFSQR

Molecule	intracellular Ca2+ mobilization (result in words) [1]	EC50 of Ca2+ release in OT-R expressing cells, OT dose-response with OT preincubated with plasma IgG of aggressors (OT/IgG IC, fixed IgG 840 nM) [2] [nM]	EC50 of Ca2+ release in OT-R expressing cells, OT dose-response with OT preincubated with plasma IgG of controls (OT/IgG IC, fixed IgG 840 nM) [2] [nM]	intracellular Ca2+ mobilization in HEK293 cells stably transfected with human OT-R, OT alone at 10^-7 M (fold over basal levels) [2]	half-time internalization rate of GFP-labeled OT-R (membrane/cytoplasmic fluorescence, exponential decay model), OT alone [3] [min]	half-time internalization rate of GFP-labeled OT-R (membrane/cytoplasmic fluorescence, exponential decay model), OT in immune complex with plasma IgG of aggressors [3] [min]	half-time internalization rate of GFP-labeled OT-R (membrane/cytoplasmic fluorescence, exponential decay model), OT in immune complex with plasma IgG of controls [3] [min]
Nc1ncnc2c1ncn2[C@@H]1O[C@H](COP(=O)(O)OP(=O)(O)OP(=O)(O)O)[C@@H](O)[C@H]1O [ATP, adenosine triphosphate]	mild increase						
oxytocin (from UniProt P01178 20-28) (peptide)		6.1	3.1	3.5	16.7	23.3	6.4
